Reference: US20180339041A1 (Kyowa Kirin, published 2018)

Target: T1, C-terminally FLAG-tagged human Gas6 recombinant protein (hGas6-F) (human, UniProt Q14393 31-678, gamma-carboxylated glutamic acid residues in the Gla domain (producer cells co-express rat VKOR and human GGCX); positions not given)
T1 construct: also called human Gas6-F; human Gas6 protein
T1 sequence: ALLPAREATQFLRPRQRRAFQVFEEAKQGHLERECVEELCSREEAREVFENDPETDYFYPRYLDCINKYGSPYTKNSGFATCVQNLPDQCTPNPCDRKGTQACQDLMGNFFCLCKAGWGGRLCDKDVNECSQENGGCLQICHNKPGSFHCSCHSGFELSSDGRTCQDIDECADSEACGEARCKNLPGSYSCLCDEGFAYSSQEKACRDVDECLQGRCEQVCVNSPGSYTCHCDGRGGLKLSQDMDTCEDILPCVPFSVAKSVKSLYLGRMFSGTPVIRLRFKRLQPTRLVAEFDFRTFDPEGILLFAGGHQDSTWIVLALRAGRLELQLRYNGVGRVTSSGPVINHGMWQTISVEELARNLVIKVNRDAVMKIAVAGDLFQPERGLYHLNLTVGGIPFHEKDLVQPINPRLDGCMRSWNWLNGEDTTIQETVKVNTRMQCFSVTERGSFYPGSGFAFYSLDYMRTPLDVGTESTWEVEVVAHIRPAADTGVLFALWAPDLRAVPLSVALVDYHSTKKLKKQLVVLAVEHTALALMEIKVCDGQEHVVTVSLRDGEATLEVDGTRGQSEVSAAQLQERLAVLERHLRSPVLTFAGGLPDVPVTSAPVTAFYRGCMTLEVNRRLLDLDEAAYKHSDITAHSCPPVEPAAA
Assay: SPR Biacore T100, captured antibody, Gas6 analyte, first test
Description: An anti-human IgG antibody was immobilized on a CM5 sensor chip (manufactured by GE Healthcare Japan Corp.) using Human Antibody Capture Kit (manufactured by GE Healthcare Japan Corp.) according to the attached manual. Each test antibody adjusted to 1 μg/mL was added for 10 seconds at a flow rate of 10 μL/min to flow cells. […] The measurement was performed by the […] method. The obtained sensorgram was analyzed using Bia Evaluation Software (manufactured by GE Healthcare Japan Corp.), and the kinetic constant of each antibody was calculated.

B1: hzKM5321 LV6HV2a antibody (antibody, V domains shown)
VH: QVHLVQSGSELKKPGASVKISCKASGYTFTNYGMNWVKQAPGQGLKWMGWINTNTGEPTYTEEFKGRFVFSLDTSVTTSYLQISTLKAEDTAVYFCARDEGWFVYWGQGTLVTVSS
VL: ETTLTQSPSSLSVSTGDRVTITCITSTDIDDDMNWYQQKPGKPPKLLISEGNTLRPGVPSRFSSSGSGTDFTLTISSTQPEDFADYYCLQTDSVPLTFGQGTKVEIK
notes: Humanized; variant human IgG4 constant region (EU S228P, L235E, R409K), human kappa; also called B-23; LV6HV2a
Kd: < 2.07 nM
koff: 0.000212 s⁻¹
kon: > 102000 M⁻¹ s⁻¹

B2: hzKM5321 LV4HV0 antibody (antibody, V domains shown)
VH: QVHLVQSGSELKKPGASVKISCKASGYTFTNYGMNWVRQAPGQGLEWMGWINTNTGEPTYTEEFKGRFVFSLDTSVTTSYLQISTLKAEDTAVYFCARDEGWFVYWGQGTLVTVSS
VL: ETTLTQSPSSLSVSTGDRVTITCITSTDIDDDMNWYQQKPGKAPKLLISEGNTLRPGVPSRFSGSGSGTDFTFTISSTQPEDFATYYCLQTDSVPLTFGQGTKVEIK
notes: Humanized; variant human IgG4 constant region (EU S228P, L235E, R409K), human kappa; also called B-07; LV4HV0
Kd: < 4.38 nM
koff: 0.000551 s⁻¹
kon: > 126000 M⁻¹ s⁻¹

B3: hzKM5321 LV1cHV0 antibody (antibody, V domains shown)
VH: QVHLVQSGSELKKPGASVKISCKASGYTFTNYGMNWVRQAPGQGLEWMGWINTNTGEPTYTEEFKGRFVFSLDTSVTTSYLQISTLKAEDTAVYFCARDEGWFVYWGQGTLVTVSS
VL: ETTLTQSPSSLSVSVGDRVTITCITSTDIDDDMNWYQQKPGKAPKLLISEGNTLRPGVPSRFSGSGSGTDFTLTISSLQPEDFATYYCLQTDSVPLTFGQGTKVEIK
notes: Humanized; variant human IgG4 constant region (EU S228P, L235E, R409K), human kappa; also called B-05; LV1cHV0
Kd: < 4.05 nM
koff: 0.000511 s⁻¹
kon: > 126000 M⁻¹ s⁻¹

B4: hzKM5321 LV4HV7 antibody (antibody, V domains shown)
VH: QIHLVQSGPELKKPGASVKISCKASGYTFTNYGMNWVKQAPGQGLKWMGWINTNTGEPTYTEEFKGRFVFSLDTSVTTAYLQISTLKAEDTATYFCARDEGWFVYWGQGTLITVSS
VL: ETTLTQSPSSLSVSTGDRVTITCITSTDIDDDMNWYQQKPGKAPKLLISEGNTLRPGVPSRFSGSGSGTDFTFTISSTQPEDFATYYCLQTDSVPLTFGQGTKVEIK
notes: Humanized; variant human IgG4 constant region (EU S228P, L235E, R409K), human kappa; also called B-17; LV4HV7
Kd: < 8.59 nM
koff: 0.000859 s⁻¹
kon: > 100000 M⁻¹ s⁻¹

B5: hzKM5321 LV1cHV7 antibody (antibody, V domains shown)
VH: QIHLVQSGPELKKPGASVKISCKASGYTFTNYGMNWVKQAPGQGLKWMGWINTNTGEPTYTEEFKGRFVFSLDTSVTTAYLQISTLKAEDTATYFCARDEGWFVYWGQGTLITVSS
VL: ETTLTQSPSSLSVSVGDRVTITCITSTDIDDDMNWYQQKPGKAPKLLISEGNTLRPGVPSRFSGSGSGTDFTLTISSLQPEDFATYYCLQTDSVPLTFGQGTKVEIK
notes: Humanized; variant human IgG4 constant region (EU S228P, L235E, R409K), human kappa; also called B-15; LV1cHV7
Kd: < 7.45 nM
koff: 0.00075 s⁻¹
kon: > 101000 M⁻¹ s⁻¹

B6: hzKM5321 LV1bHV7 antibody (antibody, V domains shown)
VH: QIHLVQSGPELKKPGASVKISCKASGYTFTNYGMNWVKQAPGQGLKWMGWINTNTGEPTYTEEFKGRFVFSLDTSVTTAYLQISTLKAEDTATYFCARDEGWFVYWGQGTLITVSS
VL: ETTLTQSPSSLSASVGDRVTITCITSTDIDDDMNWYQQKPGKAPKLLISEGNTLRPGVPSRFSGSGSGTDFTLTISSLQPEDFADYYCLQTDSVPLTFGQGTKVEIK
notes: Humanized; variant human IgG4 constant region (EU S228P, L235E, R409K), human kappa; also called B-14; LV1bHV7
Kd: < 7.49 nM
koff: 0.000751 s⁻¹
kon: > 100000 M⁻¹ s⁻¹

B7: hzKM5321 LV3HV7 antibody (antibody, V domains shown)
VH: QIHLVQSGPELKKPGASVKISCKASGYTFTNYGMNWVKQAPGQGLKWMGWINTNTGEPTYTEEFKGRFVFSLDTSVTTAYLQISTLKAEDTATYFCARDEGWFVYWGQGTLITVSS
VL: ETTLTQSPSSLSASTGDRVTITCITSTDIDDDMNWYQQKPGKAPKLLISEGNTLRPGVPSRFSGSGSGTDFTLTISSTQPEDFADYYCLQTDSVPLTFGQGTKVEIK
notes: Humanized; variant human IgG4 constant region (EU S228P, L235E, R409K), human kappa; also called B-16; LV3HV7
Kd: < 7.03 nM
koff: 0.000712 s⁻¹
kon: > 101000 M⁻¹ s⁻¹

B8: hzKM5321 LV1aHV7 antibody (antibody, V domains shown)
VH: QIHLVQSGPELKKPGASVKISCKASGYTFTNYGMNWVKQAPGQGLKWMGWINTNTGEPTYTEEFKGRFVFSLDTSVTTAYLQISTLKAEDTATYFCARDEGWFVYWGQGTLITVSS
VL: ETTLTQSPSSLSASVGDRVTITCITSTDIDDDMNWYQQKPGKPPKLLISEGNTLRPGVPSRFSGSGSGTDFTLTISSLQPEDFATYYCLQTDSVPLTFGQGTKVEIK
notes: Humanized; variant human IgG4 constant region (EU S228P, L235E, R409K), human kappa; also called B-13; LV1aHV7
Kd: < 6.83 nM
koff: 0.000684 s⁻¹
kon: > 100000 M⁻¹ s⁻¹

B9: hzKM5321 LV0HV7 antibody (antibody, V domains shown)
VH: QIHLVQSGPELKKPGASVKISCKASGYTFTNYGMNWVKQAPGQGLKWMGWINTNTGEPTYTEEFKGRFVFSLDTSVTTAYLQISTLKAEDTATYFCARDEGWFVYWGQGTLITVSS
VL: ETTLTQSPSSLSASVGDRVTITCITSTDIDDDMNWYQQKPGKAPKLLISEGNTLRPGVPSRFSGSGSGTDFTLTISSLQPEDFATYYCLQTDSVPLTFGQGTKVEIK
notes: Humanized; variant human IgG4 constant region (EU S228P, L235E, R409K), human kappa; also called B-12; LV0HV7
Kd: < 6.74 nM
koff: 0.000672 s⁻¹
kon: > 100000 M⁻¹ s⁻¹
